Measured values: US20240116985A1, “STAPLED PEPTIDES AND METHODS THEREOF” (priority 2020, published 2024)
Values joined by “and” are separate entries in the source; they are usually repeats but may differ in a detail not shown here. Equal entries are not always repeated. Starred links: 1 amine or outer side, 2 acyl side, 3 side chain; linkers in the order of their positions; H or OH if unused. Positions of bridges follow the written chain, without caps; N, C: chain ends. Non-standard residues stand in square brackets, D forms with d. PyrS2 = (S)-3-amino-1-((pent-4-en-1-yloxy)carbonyl)pyrrolidine-3-carboxylic acid, C=CCCCOC(=O)N1CC[C@@](N[*:1])(C(=O)[*:2])C1; B5 = 2-amino-2-(pent-4-en-1-yl)hept-6-enoic acid, C=CCCCC(CCCC=C)(N[*:1])C(=O)[*:2]; Bta = N[C@@H](Cc1csc2ccccc12)C(=O)O; αAllylPro = C=CC[C@@]1(C(=O)O)CCCN1; tBuAla = CC(C)(C)C[C@H](N)C(=O)O; 3Thi = N[C@@H](Cc1ccsc1)C(=O)O

Columns and labels:
[1] = target: beta-catenin-Halo NanoBRET construct (Homo sapiens (Human)) (UniProt P35222); assay: NanoBRET raw acceptor reading, Bcat-Halo/TCF4-Luc in HEK293 cells; plate row B (20 uM by plate map); competitor TCF4-Luc
Sequence of beta-catenin-Halo NanoBRET construct (Homo sapiens (Human)) (P35222 whole entry): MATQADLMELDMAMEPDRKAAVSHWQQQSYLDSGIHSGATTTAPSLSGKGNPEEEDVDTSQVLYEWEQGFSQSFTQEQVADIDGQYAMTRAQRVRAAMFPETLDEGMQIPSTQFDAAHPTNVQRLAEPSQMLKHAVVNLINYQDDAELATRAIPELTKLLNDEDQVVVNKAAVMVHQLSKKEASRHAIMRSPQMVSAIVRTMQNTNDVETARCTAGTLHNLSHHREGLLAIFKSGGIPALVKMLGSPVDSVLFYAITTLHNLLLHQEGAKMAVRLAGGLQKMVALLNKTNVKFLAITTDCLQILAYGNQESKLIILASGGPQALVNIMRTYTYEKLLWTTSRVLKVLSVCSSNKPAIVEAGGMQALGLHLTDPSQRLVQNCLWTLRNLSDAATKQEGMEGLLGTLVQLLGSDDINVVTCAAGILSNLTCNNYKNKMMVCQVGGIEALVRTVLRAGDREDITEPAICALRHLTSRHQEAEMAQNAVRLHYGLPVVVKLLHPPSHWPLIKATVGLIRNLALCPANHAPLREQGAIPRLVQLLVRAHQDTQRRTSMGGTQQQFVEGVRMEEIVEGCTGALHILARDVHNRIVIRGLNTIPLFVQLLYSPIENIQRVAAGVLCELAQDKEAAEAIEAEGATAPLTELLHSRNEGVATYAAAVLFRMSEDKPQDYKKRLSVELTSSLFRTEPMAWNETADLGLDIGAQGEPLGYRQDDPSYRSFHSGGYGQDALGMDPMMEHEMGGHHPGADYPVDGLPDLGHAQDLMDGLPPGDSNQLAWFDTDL

[2] = target: beta-catenin-Halo NanoBRET construct (Homo sapiens (Human)) (UniProt P35222); assay: NanoBRET raw acceptor reading, Bcat-Halo/TCF4-Luc in HEK293 cells; plate row G (0.625 uM by plate map); competitor TCF4-Luc
[3] = target: beta-catenin-Halo NanoBRET construct (Homo sapiens (Human)) (UniProt P35222); assay: NanoBRET, Bcat-Halo/TCF4-Luc in HEK293 cells; peptide 5 uM; replicate 2; competitor TCF4-Luc
[4] = target: beta-catenin-Halo NanoBRET construct (Homo sapiens (Human)) (UniProt P35222); assay: NanoBRET, Bcat-Halo/TCF4-Luc in HEK293 cells; peptide 1.25 uM; replicate 3; competitor TCF4-Luc
[5] = target: beta-catenin-Halo NanoBRET construct (Homo sapiens (Human)) (UniProt P35222); assay: NanoBRET raw acceptor reading, Bcat-Halo/TCF4-Luc in HEK293 cells; plate row F (1.25 uM by plate map); competitor TCF4-Luc
[6] = target: beta-catenin-Halo (NanoBRET construct expressed in HEK293 cells) (Homo sapiens (Human)) (UniProt P35222); assay: NanoBRET, HEK293 cells with Bcat-Halo and TCF4-Luc; plate row C (10 uM by plate map), plate column 7
Sequence of beta-catenin-Halo (NanoBRET construct expressed in HEK293 cells) (Homo sapiens (Human)) (P35222 whole entry): as above

[7] = target: beta-catenin-Halo (NanoBRET construct expressed in HEK293 cells) (Homo sapiens (Human)) (UniProt P35222); assay: NanoBRET, HEK293 cells with Bcat-Halo and TCF4-Luc; plate row B (20 uM by plate map), plate column 5
[8] = target: beta-catenin-Halo NanoBRET construct (Homo sapiens (Human)) (UniProt P35222); assay: NanoBRET, Bcat-Halo/TCF4-Luc in HEK293 cells; peptide 0.625 uM; replicate 3; competitor TCF4-Luc
[9] = target: beta-catenin-Halo NanoBRET construct (Homo sapiens (Human)) (UniProt P35222); assay: NanoBRET raw acceptor reading, Bcat-Halo/TCF4-Luc in HEK293 cells; plate row C (10 uM by plate map); competitor TCF4-Luc
[10] = target: beta-catenin-Halo (NanoBRET construct expressed in HEK293 cells) (Homo sapiens (Human)) (UniProt P35222); assay: NanoBRET, HEK293 cells with Bcat-Halo and TCF4-Luc; plate row D (5 uM by plate map), plate column 6
[11] = target: beta-catenin-Halo NanoBRET construct (Homo sapiens (Human)) (UniProt P35222); assay: NanoBRET, Bcat-Halo/TCF4-Luc in HEK293 cells; peptide 10 uM; replicate 3; competitor TCF4-Luc
[12] = target: beta-catenin-Halo (NanoBRET construct expressed in HEK293 cells) (Homo sapiens (Human)) (UniProt P35222); assay: NanoBRET, HEK293 cells with Bcat-Halo and TCF4-Luc; plate row B (20 uM by plate map), plate column 7
[13] = target: beta-catenin-Halo (NanoBRET construct expressed in HEK293 cells) (Homo sapiens (Human)) (UniProt P35222); assay: NanoBRET, HEK293 cells with Bcat-Halo and TCF4-Luc; plate row F (1.25 uM by plate map), plate column 6
[14] = target: beta-catenin-Halo NanoBRET construct (Homo sapiens (Human)) (UniProt P35222); assay: NanoBRET, Bcat-Halo/TCF4-Luc in HEK293 cells; peptide 2.5 uM; replicate 2; competitor TCF4-Luc
[15] = target: beta-catenin-Halo NanoBRET construct (Homo sapiens (Human)) (UniProt P35222); assay: NanoBRET, Bcat-Halo/TCF4-Luc in HEK293 cells; peptide 20 uM; replicate 1; competitor TCF4-Luc
[16] = target: beta-catenin-Halo (NanoBRET construct expressed in HEK293 cells) (Homo sapiens (Human)) (UniProt P35222); assay: NanoBRET, HEK293 cells with Bcat-Halo and TCF4-Luc; plate row D (5 uM by plate map), plate column 5
[17] = target: beta-catenin-Halo NanoBRET construct (Homo sapiens (Human)) (UniProt P35222); assay: NanoBRET, Bcat-Halo/TCF4-Luc in HEK293 cells; peptide 1.25 uM; replicate 1; competitor TCF4-Luc
[18] = target: beta-catenin-Halo (NanoBRET construct expressed in HEK293 cells) (Homo sapiens (Human)) (UniProt P35222); assay: NanoBRET, HEK293 cells with Bcat-Halo and TCF4-Luc; plate row G (0.625 uM by plate map), plate column 5
[19] = target: beta-catenin-Halo NanoBRET construct (Homo sapiens (Human)) (UniProt P35222); assay: NanoBRET raw acceptor reading, Bcat-Halo/TCF4-Luc in HEK293 cells; plate row E (2.5 uM by plate map); competitor TCF4-Luc

Acceptor 600 LP emission [1]: 860 and 660 and 640
Acceptor 600 LP emission [2]: 410 and 440 and 530
% Inhibition [3]: -28.4%
% Inhibition [4]: -4%
Acceptor 600 LP emission [5]: 300 and 410 and 860
NanoBRET donor emission 450 BP (raw reading) [6]: 40400
NanoBRET donor emission 450 BP (raw reading) [7]: 58500
% Inhibition [8]: 8.3%
Acceptor 600 LP emission [9]: 790 and 350 and 470
NanoBRET donor emission 450 BP (raw reading) [10]: 29900
% Inhibition [11]: 1.7%
NanoBRET donor emission 450 BP (raw reading) [12]: 48000
NanoBRET donor emission 450 BP (raw reading) [13]: 34500
% Inhibition [14]: 26.5%
% Inhibition [15]: -36.7%
NanoBRET donor emission 450 BP (raw reading) [16]: 38800
% Inhibition [17]: -24.8%
NanoBRET donor emission 450 BP (raw reading) [18]: 25200
Acceptor 600 LP emission [19]: 460 and 220 and 510
Binder: Ac-[αAllylPro]F[tBuAla][B5]DDAADN[PyrS2][3Thi][Bta]Q-NH2 (staple 1-4, 4-11) [I-797]
